Measurements published in the supplement of paper PMC7877785.
± gives the uncertainty stated by the source.

Assay: self-splicing fitness, log relative to wild type (ln ratio); higher = more splicing; Tetrahymena group I intron in knt gene, E. coli kanamycin selection, DiMSum; sequences stand for … in CUCUCU…GGAGGGAAAAGUUAUCAGGCAUGCACCUGGUAGCUAGUCUUUAAACCAAUAGAUUGCAUCGGUUUAAAAGGCAAGACCGUCAAAUUGCGGGAAAGGGGUCAACAGCCGUUCAGUACCAAGUCUCAGGGGAAACUUUGAGAUGGCCUUGCAAAGGGUAUGGUAAUAAGCUGACGGACAUGGUCCUAACCACGCAGCCAAGUCCUAAGUCAACAGAUCUUCUGUUGAUAUGGAUGCAGUUCACAGACUAAAUGUCGGUCGGGGAAGAUGUAUUCUUCUCAUAAGAUAUAGUCGGACCUCUCCUUAAUGGGAGCUAGCGGAUGAAGUGAUGCAACACUGGAGCCGCUGGGAACUAAUUUGUAUGCGAAAGUAUAUUGAUUAGUUUUGGAGUACUCGUGGUCG
Method in brief: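 DiMSum derived fitness as the error-weighted combination of fold changes across replicates, kanamycin versus no kanamycin, normalised to wild type. E. coli BL21(DE3) held the library, which randomised all eight P1ex-region intron nucleotides within the knt kanamycin-resistance gene on pET-22b(+). Six replicate transformations grew overnight at 37°C or 30°C on LB agar with or without 25 μg/mL kanamycin, also containing 100 μg/mL carbenicillin, 50 μM IPTG and 0.2% rhamnose, and pooled colonies were amplicon-sequenced on an Illumina HiSeq 2500.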

Sequence	self-splicing fitness (ln) (30 °C)	self-splicing fitness (ln) (37 °C)
ACUUAGCAAUAUUACGACCU	-0.101 ± 0.16	-0.219 ± 0.2
ACUUAGCAAUAUUACGACUU	-0.0888 ± 0.085	-0.156 ± 0.1
ACUUAGCAAUAUUACGAGGA	-1.87 ± 0.16	-1.66 ± 0.23
ACUUAGCAAUAUUACGAUGA	-0.609 ± 0.094	-1.2 ± 0.1
ACUUAGCAAUAUUACGCCGA	-2.94 ± 0.21	-1.35 ± 0.15
ACUUAGCAAUAUUACGCCGU	-2.28 ± 0.24	-1.11 ± 0.23
ACUUAGCAAUAUUACGCGAC	-2.91 ± 0.13	-2.06 ± 0.17
ACUUAGCAAUAUUACGCUAG	-2.35 ± 0.11	-1.72 ± 0.12
ACUUAGCAAUAUUACGGAAA	-2.19 ± 0.27	-2.09 ± 0.26
ACUUAGCAAUAUUACGGAAU	-2.99 ± 0.17	-2.13 ± 0.2
ACUUAGCAAUAUUACGGACG	-1.59 ± 0.1	-0.553 ± 0.12
ACUUAGCAAUAUUACGGCAC	-1.79 ± 0.11	-1.07 ± 0.14
ACUUAGCAAUAUUACGGCCC	-1.01 ± 0.34	-0.451 ± 0.29
ACUUAGCAAUAUUACGGCGC	-0.406 ± 0.11	0.119 ± 0.15
ACUUAGCAAUAUUACGGCUG	-1.32 ± 0.062	-0.174 ± 0.082
ACUUAGCAAUAUUACGGGAU	-2.08 ± 0.11	-0.352 ± 0.098
ACUUAGCAAUAUUACGGGUU	-3.42 ± 0.19	-3.29 ± 0.3
ACUUAGCAAUAUUACGUAAG	-0.131 ± 0.081	-0.844 ± 0.1
ACUUAGCAAUAUUACGUACA	-1.84 ± 0.17	-0.763 ± 0.15
ACUUAGCAAUAUUACGUCUU	-0.647 ± 0.084	-4.56e-06 ± 0.099
ACUUAGCAAUAUUACGUGGU	-3.62 ± 0.21	-2.26 ± 0.17
ACUUAGCAAUAUUACGUUCC	-2.16 ± 0.31	-2.04 ± 0.44
AGAAAGCAAUAUUACGACGA	-0.322 ± 0.13	0.0397 ± 0.12
AGAAAGCAAUAUUACGAUUU	-0.00992 ± 0.078	0.286 ± 0.11
AGAAAGCAAUAUUACGCAGA	-2.03 ± 0.14	-1.72 ± 0.13

Sequence	self-splicing fitness (ln) (30 °C)	self-splicing fitness (ln) (37 °C)
AGAAAGCAAUAUUACGCGGU	-3.13 ± 0.17	-1.92 ± 0.21
AGAAAGCAAUAUUACGCUGC	-2.38 ± 0.2	-1.52 ± 0.23
AGAAAGCAAUAUUACGCUUA	-1.63 ± 0.11	-0.632 ± 0.087
AGAAAGCAAUAUUACGGAAG	-2.64 ± 0.19	-1.71 ± 0.22
AGAAAGCAAUAUUACGGAGU	-2.55 ± 0.11	-1.11 ± 0.11
AGAAAGCAAUAUUACGGGCG	-0.886 ± 0.1	-0.328 ± 0.12
AGAAAGCAAUAUUACGGUAA	-2.66 ± 0.25	-0.265 ± 0.14
AGAAAGCAAUAUUACGGUCU	-1.11 ± 0.082	-0.58 ± 0.09
AGAAAGCAAUAUUACGUAAU	-1.6 ± 0.087	-1.27 ± 0.12
AGAAAGCAAUAUUACGUUGA	-2.09 ± 0.14	-1.23 ± 0.14
AGAAAGCAAUAUUACGUUGU	-4.11 ± 0.14	-1.88 ± 0.099
AGACAGCAAUAUUACGAAAU	-2.88 ± 0.17	-1.43 ± 0.14
AGACAGCAAUAUUACGAAUA	-2.38 ± 0.24	-1.62 ± 0.19
AGACAGCAAUAUUACGACAC	-1 ± 0.11	-0.662 ± 0.14
AGACAGCAAUAUUACGACCA	-0.623 ± 0.11	-0.823 ± 0.13
AGACAGCAAUAUUACGAGAG	-4.6 ± 0.34	-2.12 ± 0.17
AGACAGCAAUAUUACGCCAA	-2.35 ± 0.15	-1.1 ± 0.12
AGACAGCAAUAUUACGCGAU	-2.68 ± 0.14	-1.29 ± 0.15
AGACAGCAAUAUUACGGAAC	–	-1.4 ± 0.22
AGACAGCAAUAUUACGGACG	-1.14 ± 0.066	-0.531 ± 0.071
AGACAGCAAUAUUACGGACU	-0.583 ± 0.068	-0.3 ± 0.087
AGACAGCAAUAUUACGGCAC	-0.629 ± 0.086	-1.09 ± 0.094
AGACAGCAAUAUUACGGCGC	-0.893 ± 0.092	-0.134 ± 0.12
AGACAGCAAUAUUACGGCUG	-2.93 ± 0.14	-2.34 ± 0.19
AGACAGCAAUAUUACGGCUU	-0.243 ± 0.094	0.564 ± 0.14

Sequence	self-splicing fitness (ln) (30 °C)	self-splicing fitness (ln) (37 °C)
AGACAGCAAUAUUACGGUCG	-1.02 ± 0.093	-0.102 ± 0.12
AGACAGCAAUAUUACGUAAA	-2.15 ± 0.072	-1.05 ± 0.08
AGACAGCAAUAUUACGUGAG	-1.67 ± 0.056	-0.569 ± 0.087
AGACAGCAAUAUUACGUGUA	-1.89 ± 0.078	-1.61 ± 0.069
AGAGAGCAAUAUUACGAACA	-2.8 ± 0.36	-2.84 ± 0.31
AGAGAGCAAUAUUACGACAU	-2.476 ± 0.019	-1.94 ± 0.037
AGAGAGCAAUAUUACGACCG	-2.92 ± 0.4	–
AGAGAGCAAUAUUACGACGA	–	-1.61 ± 0.29
AGAGAGCAAUAUUACGACGU	-1.84 ± 0.15	-0.382 ± 0.15
AGAGAGCAAUAUUACGAUGG	-4.56 ± 0.36	-1.17 ± 0.29
AGAGAGCAAUAUUACGCCGA	–	-1.55 ± 0.43
AGAGAGCAAUAUUACGCUGC	-2.3 ± 0.23	-2.63 ± 0.34
AGAGAGCAAUAUUACGGCAG	-1.51 ± 0.24	-1.42 ± 0.43
AGAGAGCAAUAUUACGUAGU	-3.49 ± 0.3	-2.47 ± 0.26
AGAGAGCAAUAUUACGUCCG	–	-1.63 ± 0.33
AGAGAGCAAUAUUACGUGUC	–	-2.33 ± 0.37
AGAGAGCAAUAUUACGUUCG	-2.2 ± 0.16	-2.07 ± 0.23
AGAUAGCAAUAUUACGAAAA	-2.71 ± 0.24	-2.12 ± 0.22
AGAUAGCAAUAUUACGACAG	-2.26 ± 0.15	-0.465 ± 0.18
AGAUAGCAAUAUUACGACCU	0.592 ± 0.11	0.469 ± 0.15
AGAUAGCAAUAUUACGAUUC	-1.7 ± 0.12	-0.442 ± 0.16
AGAUAGCAAUAUUACGCAAA	-2.81 ± 0.23	-1.75 ± 0.24
AGAUAGCAAUAUUACGCAUC	-1.84 ± 0.3	-1.91 ± 0.36
AGAUAGCAAUAUUACGCCCA	-1.03 ± 0.21	-0.502 ± 0.23
AGAUAGCAAUAUUACGCCUU	-0.881 ± 0.09	-0.255 ± 0.11

Sequence	self-splicing fitness (ln) (30 °C)	self-splicing fitness (ln) (37 °C)
AGAUAGCAAUAUUACGCGCG	0.343 ± 0.18	-0.618 ± 0.2
AGAUAGCAAUAUUACGCGGU	-2.93 ± 0.17	-2.28 ± 0.15
AGAUAGCAAUAUUACGGAAU	-2.07 ± 0.15	-0.731 ± 0.14
AGAUAGCAAUAUUACGGAUC	-1.92 ± 0.21	-0.641 ± 0.2
AGAUAGCAAUAUUACGGCCU	-0.604 ± 0.11	0.606 ± 0.14
AGAUAGCAAUAUUACGGCGC	-1.32 ± 0.14	-0.0937 ± 0.15
AGAUAGCAAUAUUACGUAUA	-1.91 ± 0.19	-2.27 ± 0.28
AGAUAGCAAUAUUACGUCUA	-0.934 ± 0.24	-0.474 ± 0.2
AGAUAGCAAUAUUACGUGCA	-0.725 ± 0.13	-0.616 ± 0.15
AGAUAGCAAUAUUACGUGCC	-0.685 ± 0.2	-0.528 ± 0.22
AGAUAGCAAUAUUACGUGUU	-2.97 ± 0.13	-1.1 ± 0.11
AGCAAGCAAUAUUACGAAGA	-3.3 ± 0.31	-1.74 ± 0.15
AGCAAGCAAUAUUACGAAUU	-2.55 ± 0.08	-1.68 ± 0.09
AGCAAGCAAUAUUACGACGC	-1.09 ± 0.11	0.048 ± 0.12
AGCAAGCAAUAUUACGACGU	-0.267 ± 0.075	0.91 ± 0.093
AGCAAGCAAUAUUACGAGAC	-4.19 ± 0.36	-2.81 ± 0.21
AGCAAGCAAUAUUACGAGCA	-0.456 ± 0.14	-0.101 ± 0.14
AGCAAGCAAUAUUACGAGCU	-3.42 ± 0.17	-2.15 ± 0.21
AGCAAGCAAUAUUACGAGUG	-1.15 ± 0.051	-0.683 ± 0.06
AGCAAGCAAUAUUACGAUUA	-1.56 ± 0.093	-0.818 ± 0.081
AGCAAGCAAUAUUACGCAAG	-2.4 ± 0.2	-2.11 ± 0.26
AGCAAGCAAUAUUACGCAUC	-2.72 ± 0.093	-3.73 ± 0.24
